In test [1] the target is T1, GPC3 (UniProt P51654 25-559, limits assumed).
T1 construct: also called antigen GPC3; Glypican 3
Put plainly: SPR (Biacore T200); scFv-Fc captured by anti-human Fc pAb, GPC3 10-320 nM in flow. An excerpt: (§1) The humanized VLs (VL1 and VL1.M2) were connected to humanized VHs (VH2, VH2.M1, VH2.M5 and VH2.M6) with a (G4S)₃ linker (SEQ ID NO: 10) to construct humanized scFvs. These scFvs were expressed with a C-terminal Fc tag in HEK293 cells. The crude scFv proteins secreted to the cell culture supernatant were used for binding affinity determination using surface plasmon resonance (SPR) on a Biacore T200 machine. Briefly, the scFv protein was captured on the sensor chip pre-coated with goat-anti-human Fc polyclonal antibody (pAb) (Jackson ImmunoResearch, cat #109-005-098) via the interaction between pAb and the Fc tag, then the antigen GPC3 concentration ranging from 10 nM to 320 nM flowed through the sensor chip. After 100 s of association, running buffer (10 mM HEPES, 150 mM NaCl, 3 mM EDTA, 0.005% Tween-20, pH 7.4) flowed through the sensor chip to allow the scFv-GPC3 complex to dissociation. The sensor chip was regenerated using 50 mM HCl between cycles.
(SPR reads the build-up and loss of mass on a sensor chip optically.)

Test [2] concerns the target T1, GPC3. The test can be described thus: SPR as in Example 1 (Biacore T200; scFv-Fc captured, GPC3 in flow).
From the text: as §1
To further improve the humanization of anti-GPC3 scFvs, additional amino acid residues in VH1 and VL1 were mutated to their human germline counterparts. In HCDR2 of VH2.M6, mutations K54S, T55G or both were introduced, yielding VH2.M8 (SEQ ID NO: 11), VH2.M9 (SEQ ID NO: 12) and VH2.M10 (SEQ ID NO: 13) sequences, respectively. Mutation D57S was introduced to VH2.M6, yielding VH2.M11 sequence (SEQ ID NO: 14). All three additional mutations was introduced to VH2.M6, yielding VH2.M12 sequence (SEQ ID NO: 15). Similarly for VL1.M2, an additional N35K mutation was introduced to LCDR1, yielding VL1.M3 (SEQ ID NO: 16). Additional S94M, N96G and V99W mutations were introduced to LCDR3 of VL1.M2 individually, yielding VL1.M6 (SEQ ID NO: 17), VL1.M7 (SEQ ID NO: 18) and VL1.M8 (SEQ ID NO: 19) sequences, respectively. Additional S94M mutations was introduced to LCDR3 of VL1, yielding VL1.M9 (SEQ ID NO: 137) sequence. The binding affinity of these humanized variants were again determined using SPR as described in Example 1 (Table 5).

For test [3], the target named is T1, GPC3. Put plainly: SPR as in Example 1; reference not named (VH2.M6 or mouse scFv).
From the text: as §1
To further improve the humanization of anti-GPC3 scFvs, additional amino acid residues in VH1 and VL1 were mutated to their human germline counterparts. […] The binding affinity of these humanized variants were again determined using SPR as described in Example 1 (Table 5).

Changes are numbered by the printed parent chain.

As usually defined, the Kd is the equilibrium constant for the complex coming apart. A high value points to weaker binding. Broadly, the koff is a measure of how fast the partners let go of each other. A higher koff goes with fast dissociation. By kon is commonly meant the second-order rate constant of association. A lower kon goes with slower complex formation.

T1 sequence (P51654 25-559 limits assumed): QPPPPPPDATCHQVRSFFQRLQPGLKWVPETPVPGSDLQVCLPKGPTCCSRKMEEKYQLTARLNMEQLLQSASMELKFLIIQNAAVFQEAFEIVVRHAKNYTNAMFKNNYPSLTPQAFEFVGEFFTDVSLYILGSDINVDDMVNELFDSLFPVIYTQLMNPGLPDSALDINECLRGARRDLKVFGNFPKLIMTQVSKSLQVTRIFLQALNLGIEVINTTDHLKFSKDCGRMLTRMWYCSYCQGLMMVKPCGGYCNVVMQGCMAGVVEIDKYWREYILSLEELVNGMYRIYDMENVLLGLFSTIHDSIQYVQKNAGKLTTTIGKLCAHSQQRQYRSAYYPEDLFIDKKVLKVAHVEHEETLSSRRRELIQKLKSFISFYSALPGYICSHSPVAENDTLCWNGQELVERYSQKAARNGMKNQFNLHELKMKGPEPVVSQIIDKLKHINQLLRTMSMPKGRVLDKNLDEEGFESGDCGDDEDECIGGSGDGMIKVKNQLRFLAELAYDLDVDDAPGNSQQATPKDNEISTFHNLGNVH

B1: mouse anti-GPC3 GC33 scFv (VL-VH) (scFv)
scFv: DVVMTQTPLSLPVSLGDQASISCRSSQSLVHSNGNTYLHWYLQKPGQSPKLLIYKVSNRFSGVPDRFSGSGSGTDFTLKISRVEAEDLGVYFCSQNTHVPPTFGSGTKLEIKGGGGSGGGGSGGGGSQVQLQQSGAELVRPGASVKLSCKASGYTFTDYEMHWVKQTPVHGLKWIGALDPKTGDTAYSQKFKGKATLTADKSSSTAYMELRSLTSEDSAVYYCTRFYSYTYWGQGTLVTVSA
notes: also called mouse scFv; not shown: C-terminal Fc tag (human Fc, used only for capture on the anti-human Fc chip) and any junction to it
In test [1], B1 showed a Kd of 1.8 nM, a koff of 0.00023 s⁻¹ and a kon of 130000 M⁻¹ s⁻¹. In test [2], this molecule came in with a Kd of 4 nM, a koff of 0.00021 s⁻¹ and a kon of 51000 M⁻¹ s⁻¹.

B2: VL1.M2-VH2.M6 humanized scFv (scFv, not shown: a dimerising Fc or GST)
scFv: DIVMTQTPLSLSVTPGQPASISCRSSQSLVHSNGNTYLHWYLQKPGQSPQLLIYKVSSRFSGVPDRFSGSGSGTDFTLKISRVEAEDVGVYYCSQNTHVPPTFGQGTKVEIKGGGGSGGGGSGGGGSQVQLVQSGAEVKKPGASVKVSCKASGYTFTSYEMHWVRQAPGQGLEWMGALDPKTGDTAYSQKFQGRVTLTADTSTSTVYMELSSLRSEDTAVYYCTRFYSYTYWGQGTLVTVSS
notes: Crude scFv with Fc tag from HEK293 supernatant
With B2, in test [1], binding was put at a Kd of 2.7 nM, the koff was determined as 0.0005 s⁻¹ and the kon was 190000 M⁻¹ s⁻¹. In test [2], the Kd turned out to be 6.8 nM, the koff was 0.00048 s⁻¹ and the kon turned out to be 70000 M⁻¹ s⁻¹.

B3: VL1.M8-VH2.M6 humanized scFv (scFv, not shown: a dimerising Fc or GST)
scFv: B2 scFv with V99W
In test [2], B3 returned a Kd of 44 nM, a koff of 0.0042 s⁻¹ and a kon of 94000 M⁻¹ s⁻¹.

B4: VL1.M2-VH2.M1 humanized scFv (scFv, not shown: a dimerising Fc or GST)
scFv: B2 scFv with Q192K
notes: as for B2
Consider B4, for which, in test [1], the Kd amounted to 3 nM, the koff amounted to 0.00051 s⁻¹ and the kon turned out to be 170000 M⁻¹ s⁻¹.

B5: VL1.M7-VH2.M6 humanized scFv (scFv, not shown: a dimerising Fc or GST)
scFv: B2 scFv with N96G
In test [2], B5 displayed a Kd of 51 nM, a koff of 0.0034 s⁻¹ and a kon of 67000 M⁻¹ s⁻¹.

B6: VL1-VH2.M1 humanized scFv (scFv, not shown: a dimerising Fc or GST)
scFv: B2 scFv with S58N, Q192K
notes: as for B2
In test [1], B6 yielded a Kd of 1.9 nM, a koff of 0.00036 s⁻¹ and a kon of 190000 M⁻¹ s⁻¹.

B7: VL1-VH2.M6 humanized scFv (scFv, not shown: a dimerising Fc or GST)
scFv: B2 scFv with S58N
notes: as for B2
In test [1], B7 showed a Kd of 2 nM, a koff of 0.00037 s⁻¹ and a kon of 190000 M⁻¹ s⁻¹.

B8: VL1-VH2 humanized scFv (scFv, not shown: a dimerising Fc or GST)
scFv: B2 scFv with S58N, S158D, Q192K
notes: as for B2
In test [1], B8 had a Kd of 1.7 nM, a koff of 0.00029 s⁻¹ and a kon of 170000 M⁻¹ s⁻¹.

B9: VL1.M2-VH2.M8 humanized scFv (scFv, not shown: a dimerising Fc or GST)
scFv: B2 scFv with K181S
In test [2], B9 yielded a Kd of 6 nM, a koff of 0.00044 s⁻¹ and a kon of 74000 M⁻¹ s⁻¹.

B10: VL1.M3-VH2.M6 humanized scFv (scFv, not shown: a dimerising Fc or GST)
scFv: B2 scFv with N35K
Regarding B10, in test [2], binding was characterised by a dissociation constant (Kd) of 27 nM, the koff was found to be 0.0016 s⁻¹ and the kon came out at 61000 M⁻¹ s⁻¹.

B11: VL1.M2-VH2.M10 humanized scFv (scFv, not shown: a dimerising Fc or GST)
scFv: B2 scFv with K181S, T182G
As for B11, in test [2], the Kd worked out at 6.8 nM, the koff amounted to 0.0005 s⁻¹ and the kon amounted to 74000 M⁻¹ s⁻¹.

B12: VL1-VH2.M5 humanized scFv (scFv, not shown: a dimerising Fc or GST)
scFv: B2 scFv with S58N, S158D
notes: as for B2
Turning to B12, in test [1], the Kd stood at 1.6 nM, the koff stood at 0.00027 s⁻¹ and the kon came to 170000 M⁻¹ s⁻¹.

B13: VL1.M2-VH2.M11 humanized scFv (scFv, not shown: a dimerising Fc or GST)
scFv: B2 scFv with D184S
B13: the “fold drop in binding affinity” value in test [3] is under 4 fold. For the same molecule, in test [2], the Kd amounted to 13 nM, the koff stood at 0.00085 s⁻¹ and the kon was 67000 M⁻¹ s⁻¹.

B14: VL1.M6-VH2.M6 humanized scFv (scFv, not shown: a dimerising Fc or GST)
scFv: B2 scFv with S94M
In test [2], B14 yielded a dissociation constant (Kd) of 5.7 nM, a koff of 0.00058 s⁻¹ and a kon of 100000 M⁻¹ s⁻¹.

B15: VL1.M2-VH2.M5 humanized scFv (scFv, not shown: a dimerising Fc or GST)
scFv: B2 scFv with S158D
notes: as for B2
For the molecule B15, in test [1], the Kd came to 2.1 nM, the koff was 0.00037 s⁻¹ and the kon was found to be 170000 M⁻¹ s⁻¹.

B16: VL1.M2-VH2.M9 humanized scFv (scFv, not shown: a dimerising Fc or GST)
scFv: B2 scFv with T182G
On to B16, for which, in test [2], the Kd stood at 8.2 nM, the koff came to 0.0006 s⁻¹ and the kon was 74000 M⁻¹ s⁻¹.

B17: VL1.M2-VH2 humanized scFv (scFv, not shown: a dimerising Fc or GST)
scFv: B2 scFv with S158D, Q192K
notes: as for B2
In test [1], B17 showed a Kd of 2.2 nM, a koff of 0.00035 s⁻¹ and a kon of 160000 M⁻¹ s⁻¹.

These data come from patent publication US20250297029A1 (NANJING LEGEND BIOTECH, published 2025).
